Patent US20160264649A1

Key:
Assay in all cases: cell-based or functional assay
[1] = target: HIV-1 MGRM-F1-006 Env (HIV-1)
[2] = target: HIV-1 MGRM-C-008 Env on pseudovirus (HIV-1)
[3] = target: HIV-1 MGRM-F1-018 Env (HIV-1)
[4] = target: HIV-1 MGRM-AE-004 Env (HIV-1)
[5] = target: HIV-1 MGRM-C-001 Env on pseudovirus (HIV-1)
[6] = target: HIV-1 MGRM-Chronic-B-004 Env on pseudovirus (HIV-1)
[7] = target: aMLV envelope (negative control pseudovirus)
[8] = target: HIV-1 MGRM-D-008 Env (HIV-1)
[9] = target: HIV-1 MGRM-G-015 Env (HIV-1)
[10] = target: HIV-1 6535.3 (Acute) Env on pseudovirus (HIV-1)
[11] = target: HIV-1 MGRM-F1-022 Env (HIV-1)
[12] = target: HIV-1 MGRM-C-002 Env on pseudovirus (HIV-1)
[13] = target: HIV-1 98CN009 Env on pseudovirus (HIV-1)
[14] = target: HIV-1 APV_13 Env on pseudovirus (HIV-1)
[15] = target: HIV-1 MGRM-C-023 Env on pseudovirus (HIV-1)
[16] = target: HIV-1 MGRM-C-019 Env on pseudovirus (HIV-1)
[17] = target: HIV-1 IAVI-C22 Env (HIV-1)
[18] = target: HIV-1 MGRM-D-014 Env (HIV-1)
[19] = target: HIV-1 MGRM-G-017 Env (HIV-1)
[20] = target: HIV-1 MGRM-F1-004 Env (HIV-1)
[21] = target: HIV-1 MGRM-G-014 Env (HIV-1)
[22] = target: HIV-1 MGRM-D-020 Env (HIV-1)
[23] = target: aMLV envelope
[24] = target: HIV-1 MGRM-C-017 Env on pseudovirus (HIV-1)
[25] = target: HIV-1 QH0692.42 (Acute) Env on pseudovirus (HIV-1)
[26] = target: HIV-1 98CN006 Env on pseudovirus (HIV-1)
[27] = target: HIV-1 94UG103 Env (HIV-1)
[28] = target: HIV-1 98IN022 Env on pseudovirus (HIV-1)
[29] = target: HIV-1 MGRM-AG-012 Env (HIV-1)
[30] = target: HIV-1 APV-13 Env (HIV-1)
[31] = target: HIV-1 MGRM-D-029 Env (HIV-1)
[32] = target: HIV-1 NL43 Env on pseudovirus (HIV-1)
[33] = target: HIV-1 MGRM-G-009 Env (HIV-1)
[34] = target: HIV-1 IAVI-C3 Env (HIV-1)
[35] = target: HIV-1 MGRM-C-020 Env on pseudovirus (HIV-1)
[36] = target: HIV-1 MGRM-D-011 Env (HIV-1)
[37] = target: HIV-1 MGRM-F1-015 Env (HIV-1)
[38] = target: HIV-1 92UG005 Env (HIV-1)
[39] = target: HIV-1 92TH021 Env (HIV-1)
[40] = target: HIV-1 MGRM-G-011 Env (HIV-1)
[41] = target: HIV-1 MGRM-F1-014 Env (HIV-1)
[42] = target: HIV-1 MGRM-C-009 Env on pseudovirus (HIV-1)
[43] = target: HIV-1 LAVIC_18 Env on pseudovirus (HIV-1)
[44] = target: HIV-1 MGRM-C-025 Env on pseudovirus (HIV-1)
[45] = target: HIV-1 NL43 Env (HIV-1)
[46] = target: HIV-1 MGRM-G-013 Env (HIV-1)
[47] = target: HIV-1 TRO.11 (Acute) Env on pseudovirus (HIV-1)
[48] = target: HIV-1 MGRM-F1-012 Env (HIV-1)
[49] = target: HIV-1 MGRM-D-024 Env (HIV-1)
[50] = target: HIV-1 SC422661.8 (Acute) Env on pseudovirus (HIV-1)
[51] = target: HIV-1 JRFL Env on pseudovirus (HIV-1)

2F5 (antibody)
IC50 (pseudovirus neutralization) [1]: 1.1 µg/mL | IC50 [2]: > 50 µg/mL | IC50 (pseudovirus neutralization) [3]: 3.91 µg/mL | IC50 (µg/ml), pseudovirus neutralization [4]: 0.98 µg/mL | IC50 [5]: > 50 µg/mL | IC50 [6]: 2.41 µg/mL | IC50 (pseudovirus neutralization) [7]: > 50 µg/mL | IC50 (µg/ml), pseudovirus neutralization [8]: > 50 µg/mL | IC50 (µg/ml), pseudovirus neutralization [9]: 0.43 µg/mL | IC50 [10]: 2.76 µg/mL | IC50 (pseudovirus neutralization) [11]: 1.26 µg/mL | IC50 [12]: 44.7 µg/mL | IC50 [13]: > 50 µg/mL | IC50 [14]: 3.81 µg/mL | IC50 [15]: > 50 µg/mL | IC50 [16]: > 50 µg/mL | neutralization IC50 [17]: > 50 µg/mL | neutralization IC90 [17]: > 50 µg/mL | IC50 (µg/ml), pseudovirus neutralization [18]: 2.22 µg/mL | IC50 (µg/ml), pseudovirus neutralization [19]: 0.6 µg/mL | IC50 (pseudovirus neutralization) [20]: 4.31 µg/mL | IC50 (µg/ml), pseudovirus neutralization [21]: 9.65 µg/mL | IC50 (µg/ml), pseudovirus neutralization [22]: > 50 µg/mL | neutralization IC50 [23]: > 50 µg/mL | neutralization IC90 [23]: > 50 µg/mL | IC50 [24]: > 50 µg/mL | IC50 [25]: 5.42 µg/mL | IC50 [26]: > 50 µg/mL | neutralization IC50 [27]: 3.79 µg/mL | neutralization IC90 [27]: 46.6 µg/mL | IC50 [28]: > 50 µg/mL | IC50 (µg/ml), pseudovirus neutralization [29]: 0.33 µg/mL | neutralization IC50 [30]: 2.8 µg/mL | IC50 (µg/ml), pseudovirus neutralization [31]: > 50 µg/mL | IC50 [32]: 2.02 µg/mL | IC50 (µg/ml), pseudovirus neutralization [33]: 7.21 µg/mL | neutralization IC50 [34]: > 50 µg/mL | IC50 [35]: > 50 µg/mL | IC50 (µg/ml), pseudovirus neutralization [36]: > 50 µg/mL | IC50 (pseudovirus neutralization) [37]: 0.1 µg/mL | IC50 (µg/ml), pseudovirus neutralization [38]: 8.61 µg/mL | neutralization IC50 [38]: 11.8 µg/mL | neutralization IC90 [38]: > 50 µg/mL | neutralization IC50 [39]: 1.51 µg/mL | neutralization IC90 [39]: 18.8 µg/mL | IC50 (µg/ml), pseudovirus neutralization [40]: 1.16 µg/mL | IC50 (pseudovirus neutralization) [41]: 15.1 µg/mL | IC50 [42]: > 50 µg/mL | IC50 [43]: > 50 µg/mL | IC50 [44]: > 50 µg/mL | neutralization IC50 [45]: 2.41 µg/mL | neutralization IC90 [45]: 19.3 µg/mL | IC50 (µg/ml), pseudovirus neutralization [46]: 0.59 µg/mL | IC50 [47]: > 50 µg/mL | IC50 (pseudovirus neutralization) [48]: > 50 µg/mL | IC50 (µg/ml), pseudovirus neutralization [49]: > 50 µg/mL | IC50 [50]: > 50 µg/mL | IC50 [51]: 3.54 µg/mL

2G12 (antibody)
IC50 (pseudovirus neutralization) [1]: > 50 µg/mL | IC50 [2]: > 50 µg/mL | IC50 (pseudovirus neutralization) [3]: > 50 µg/mL | IC50 (µg/ml), pseudovirus neutralization [4]: > 50 µg/mL | IC50 [5]: 2.93 µg/mL | IC50 [6]: 8.65 µg/mL | IC50 (pseudovirus neutralization) [7]: > 50 µg/mL | IC50 (µg/ml), pseudovirus neutralization [8]: > 50 µg/mL | IC50 (µg/ml), pseudovirus neutralization [9]: > 50 µg/mL | IC50 [10]: 3.85 µg/mL | IC50 (pseudovirus neutralization) [11]: > 50 µg/mL | IC50 [12]: > 50 µg/mL | IC50 [13]: > 50 µg/mL | IC50 [14]: 9.24 µg/mL | IC50 [15]: > 50 µg/mL | IC50 [16]: > 50 µg/mL | neutralization IC50 [17]: > 50 µg/mL | neutralization IC90 [17]: > 50 µg/mL | IC50 (µg/ml), pseudovirus neutralization [18]: > 50 µg/mL | IC50 (µg/ml), pseudovirus neutralization [19]: > 50 µg/mL | IC50 (pseudovirus neutralization) [20]: > 50 µg/mL | IC50 (µg/ml), pseudovirus neutralization [21]: > 50 µg/mL | IC50 (µg/ml), pseudovirus neutralization [22]: > 50 µg/mL | neutralization IC50 [23]: > 50 µg/mL | neutralization IC90 [23]: > 50 µg/mL | IC50 [24]: > 50 µg/mL | IC50 [25]: 4.39 µg/mL | IC50 [26]: > 50 µg/mL | neutralization IC50 [27]: > 50 µg/mL | neutralization IC90 [27]: > 50 µg/mL | IC50 [28]: > 50 µg/mL | IC50 (µg/ml), pseudovirus neutralization [29]: 1.94 µg/mL | neutralization IC50 [30]: 23.9 µg/mL | IC50 (µg/ml), pseudovirus neutralization [31]: > 50 µg/mL | IC50 [32]: 0.49 µg/mL | IC50 (µg/ml), pseudovirus neutralization [33]: > 50 µg/mL | neutralization IC50 [34]: > 50 µg/mL | neutralization IC90 [34]: > 50 µg/mL | IC50 [35]: 18.6 µg/mL | IC50 (µg/ml), pseudovirus neutralization [36]: 1.5 µg/mL | IC50 (pseudovirus neutralization) [37]: > 50 µg/mL | IC50 (µg/ml), pseudovirus neutralization [38]: > 50 µg/mL | neutralization IC50 [38]: > 50 µg/mL | neutralization IC90 [38]: > 50 µg/mL | IC50 (µg/ml), pseudovirus neutralization [39]: > 50 µg/mL | neutralization IC50 [39]: > 50 µg/mL | neutralization IC90 [39]: > 50 µg/mL | IC50 (µg/ml), pseudovirus neutralization [40]: > 50 µg/mL | IC50 (pseudovirus neutralization) [41]: > 50 µg/mL | IC50 [42]: > 50 µg/mL | IC50 [43]: > 50 µg/mL | IC50 [44]: > 50 µg/mL | neutralization IC50 [45]: 0.75 µg/mL | neutralization IC90 [45]: 15.8 µg/mL | IC50 (µg/ml), pseudovirus neutralization [46]: > 50 µg/mL | IC50 [47]: 0.29 µg/mL | IC50 (pseudovirus neutralization) [48]: 1.81 µg/mL | IC50 (µg/ml), pseudovirus neutralization [49]: > 50 µg/mL | IC50 [50]: 0.84 µg/mL | IC50 [51]: 1.45 µg/mL
